In PMC10803776 (2024):

Molecular target: Mycobacterium tuberculosis DnaK, wild type, full length (Mycobacterium tuberculosis, UniProt P9WMJ9 1-625)
Assay: ITC

B1: Mycobacterium tuberculosis GrpE, wild type, full length (natural protein)
chain: MTDGNQKPDGNSGEQVTVTDKRRIDPETGEVRHVPPGDMPGGTAAADAAHTEDKVAELTADLQRVQADFANYRKRALRDQQAAADRAKASVVSQLLGVLDDLERARKHGDLESGPLKSVADKLDSALTGLGLVAFGAEGEDFDPVLHEAVQHEGDGGQGSKPVIGTVMRQGYQLGEQVLRHALVGVVDTVVVDAAELESVDDGTAVADTAENDQADQGNSADTSGEQAESEPSGS
  Kd: 360 nM
